The assay addresses MspJI wild type (modification-dependent restriction endonuclease). The assay is described as follows: crystal structure.

Take “MspJI wild type (modification-dependent restriction endonuclease) (enzyme)”: the stoichiometry N (as a rule, a count of units in the complex or per binding partner) is 4.

The values above are taken from publication PMC4231741.
